The record followed here is patent US20150224177A1 (priority 2014, published 2015).

“Also recorded” adds a separate entry of the source.

The test system of one assay is Yersinia pestis. Put plainly: microbe, parasite or virus in culture. Type of assay: cell-based.
For assay [1], the system named is B. pseudomallei strains 1026b and MSHR 305. Type of assay: cell-based, Burkholderia pseudomallei.
Another assay relates to Bacillus anthracis. The class given is cell-based.
Another assay concerns Burkholderia mallei. The assay can be described thus: microbe, parasite or virus in culture. The class given is cell-based.
In a further assay the test system is B. pseudomallei isolates. The assay can be described thus: microbe, parasite or virus in culture. Type of assay: cell-based, Burkholderia pseudomallei.

B1: bovine lactoferrin (protein, UniProt P24627 20-708, looked up)
Lactotransferrin: APRKNVRWCTISQPEWFKCRRWQWRMKKLGAPSITCVRRAFALECIRAIAEKKADAVTLDGGMVFEAGRDPYKLRPVAAEIYGTKESPQTHYYAVAVVKKGSNFQLDQLQGRKSCHTGLGRSAGWIIPMGILRPYLSWTESLEPLQGAVAKFFSASCVPCIDRQAYPNLCQLCKGEGENQCACSSREPYFGYSGAFKCLQDGAGDVAFVKETTVFENLPEKADRDQYELLCLNNSRAPVDAFKECHLAQVPSHAVVARSVDGKEDLIWKLLSKAQEKFGKNKSRSFQLFGSPPGQRDLLFKDSALGFLRIPSKVDSALYLGSRYLTTLKNLRETAEEVKARYTRVVWCAVGPEEQKKCQQWSQQSGQNVTCATASTTDDCIVLVLKGEADALNLDGGYIYTAGKCGLVPVLAENRKSSKHSSLDCVLRPTEGYLAVAVVKKANEGLTWNSLKDKKSCHTAVDRTAGWNIPMGLIVNQTGSCAFDEFFSQSCAPGADPKSRLCALCAGDDQGLDKCVPNSKEKYYGYTGAFRCLAEDVGDVAFVKNDTVWENTNGESTADWAKNLNREDFRLLCLDGTRKPVTEAQSCHLAVAPNHAVVSRSDRAAHVKQVLLHQQALFGKNGKNCPDKFCLFKSETKNLLFNDNTECLAKLGGRPTYEEYLGTEYVTAIANLKKCSTSPLLEACAFLTR
As to B1, in the assay with Yersinia pestis, the “Minimal Inhibitory Concentration” value is >91,400 μg/mL and the “inhibition of growth, result in words” value is on record as “did not inhibit Y. pestis growth at any concentration by itself”. In assay [1], the “bacterial growth by T24h compared with positive/untreated control” value is “grew to match or exceed the concentration of the positive control; also recorded: replicate to the same levels as those in the untreated controls”; the “bactericidal effect, overall result in words” value is “much more minor direct bactericidal effect”; the “initial reduction in bacterial concentration” value is 1 to 2 log10; the “kill curve: evolution of microbial load during time” value is “impact can be seen at T6h (standalone); also recorded: impact can be seen at T4h (standalone)”. Further, in the assay on Bacillus anthracis, the “Minimal Inhibitory Concentration” value is reported as >91,400 μg/mL and the “inhibition of growth, result in words” value was “no observed inhibition of growth”. In the assay with Burkholderia mallei, the “Minimal Inhibitory Concentration” value is on record as “≧91,400 μg/mL” and the “inhibition of growth, result in words” value is “generally did not inhibit B. mallei growth by itself”. Besides, in the assay with B. pseudomallei isolates, the “Minimal Inhibitory Concentration” value was >91,429 μg/mL; the “concentration of bLF at which all isolates were capable of growth (highest concentration tested)” value is listed as greater than 91.429 mg/mL; the “inhibition of growth, overall result in words” value was “not directly inhibited”.
